Assay results published in paper PMC3649970, “A Unique Spumavirus Gag N-terminal Domain with Functional Properties of Orthoretroviral Matrix and Capsid” (PLoS Pathogens, 2013).
Positions count from the first letter of the chain named.

Assays:
Conditions in all cases: both partners purified
[1] = molecular target: T1, PFV-Gag-NtD L17S (Prototypic foamy virus (PFV), UniProt P14349 1-179, L17S); assay: AUC; sedimentation velocity of 75 µM equimolar mixtures of Gag-NtD and Env peptide, absorbance at 280 nm; bound fraction from the integrated absorbance of the 3S species in C(S)
T1 construct: Gag of Prototypic Foamy Virus, residues 1-179 (Gag-NtD) with L17S
T1 sequence (looked up): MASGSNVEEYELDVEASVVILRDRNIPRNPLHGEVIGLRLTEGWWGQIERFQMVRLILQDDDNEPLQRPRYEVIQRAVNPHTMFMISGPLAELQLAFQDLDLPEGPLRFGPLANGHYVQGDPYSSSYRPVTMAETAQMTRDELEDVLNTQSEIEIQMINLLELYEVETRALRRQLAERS

[2] = molecular target: T2, PFV-Gag-NtD V14S/V18S (Prototypic foamy virus (PFV), UniProt P14349 1-179, V14S | V18S); assay: as above
T2 construct: Gag of Prototypic Foamy Virus, residues 1-179 (Gag-NtD) with V14S and V18S
T2 sequence (looked up): T1 sequence (looked up) with V14S, S17L, V18S

[3] = molecular target: T3, PFV-Gag-NtD V18S (Prototypic foamy virus (PFV), UniProt P14349 1-179, V18S); assay: as above
T3 construct: Gag of Prototypic Foamy Virus, residues 1-179 (Gag-NtD) with V18S
T3 sequence (looked up): T1 sequence (looked up) with S17L, V18S

[4] = molecular target: T4, PFV-Gag-NtD (amino terminal domain of Prototypic Foamy Virus Gag, residues 1-179) (Prototypic foamy virus (PFV), UniProt P14349 1-179); assay: ITC; ITC-200; 1 mM Env peptide in the syringe injected into 50 µM PFV-Gag-NtD in the cell; 25 mM Na-phosphate pH 6.55, 100 mM NaCl, 0.5 mM TCEP
T4 construct: source: E. coli Rosetta 2 (DE3), purified (Ni-NTA, Superdex 200 SEC); not shown: His-tag, N-terminal, kept
T4 sequence: T1 sequence (looked up) with S17L

B1: PFV Env leader peptide residues 1-20 (peptide, UniProt P14351 1-20, looked up)
peptide: MAPPMTLQQWIIWKKMNKAH
notes: Envelope (Env) protein of Prototypic Foamy Virus, N-terminal leader peptide region, residues 1-20 (Met1 to His20); the text names M1, A2, P3, P4, M5, T6, L7, Q9, W10, W13, M16, A19, H20; also called Env_(1-20); Env(1-20); source: synthetic peptide, bought HPLC purified: Pepceuticals Ltd
- fold decrease of affinity against wt PFV-Gag-NtD [1]: 2 fold
- binding result [2]: binds
- fold decrease of affinity against wt PFV-Gag-NtD [3]: 2 fold
- Ka [4]: 150000 M⁻¹
- stoichiometry N [4]: 1
